One test addresses T1, Kap95p (S. cerevisiae, UniProt Q06142 1-861).
T1 sequence (looked up): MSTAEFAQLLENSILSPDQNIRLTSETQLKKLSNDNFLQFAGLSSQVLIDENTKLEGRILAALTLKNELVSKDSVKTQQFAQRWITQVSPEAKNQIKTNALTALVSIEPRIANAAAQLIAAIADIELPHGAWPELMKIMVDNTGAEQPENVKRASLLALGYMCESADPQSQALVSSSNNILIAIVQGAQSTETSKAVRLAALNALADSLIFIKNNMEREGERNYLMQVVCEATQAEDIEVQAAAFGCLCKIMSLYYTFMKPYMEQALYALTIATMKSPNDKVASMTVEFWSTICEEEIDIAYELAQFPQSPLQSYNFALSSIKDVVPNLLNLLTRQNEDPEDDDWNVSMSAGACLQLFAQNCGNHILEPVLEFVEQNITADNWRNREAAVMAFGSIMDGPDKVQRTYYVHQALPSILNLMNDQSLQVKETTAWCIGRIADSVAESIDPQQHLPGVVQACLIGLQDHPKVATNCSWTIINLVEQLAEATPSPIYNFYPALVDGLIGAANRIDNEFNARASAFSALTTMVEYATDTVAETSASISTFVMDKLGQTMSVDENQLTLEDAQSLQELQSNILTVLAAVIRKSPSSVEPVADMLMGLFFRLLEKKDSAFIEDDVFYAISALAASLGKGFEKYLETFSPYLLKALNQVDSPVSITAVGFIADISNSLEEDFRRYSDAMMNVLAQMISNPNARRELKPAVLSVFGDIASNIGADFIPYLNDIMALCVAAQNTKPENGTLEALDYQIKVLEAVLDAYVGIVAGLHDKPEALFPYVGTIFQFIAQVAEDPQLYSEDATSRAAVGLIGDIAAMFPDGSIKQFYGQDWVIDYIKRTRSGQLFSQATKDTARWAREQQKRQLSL
The experiment in a line: ITC. (In general: ITC needs no label: the signal is the heat of the interaction.)

The next test addresses T2, Kap121p (S. cerevisiae, UniProt P32337 1-1089).
T2 sequence (looked up): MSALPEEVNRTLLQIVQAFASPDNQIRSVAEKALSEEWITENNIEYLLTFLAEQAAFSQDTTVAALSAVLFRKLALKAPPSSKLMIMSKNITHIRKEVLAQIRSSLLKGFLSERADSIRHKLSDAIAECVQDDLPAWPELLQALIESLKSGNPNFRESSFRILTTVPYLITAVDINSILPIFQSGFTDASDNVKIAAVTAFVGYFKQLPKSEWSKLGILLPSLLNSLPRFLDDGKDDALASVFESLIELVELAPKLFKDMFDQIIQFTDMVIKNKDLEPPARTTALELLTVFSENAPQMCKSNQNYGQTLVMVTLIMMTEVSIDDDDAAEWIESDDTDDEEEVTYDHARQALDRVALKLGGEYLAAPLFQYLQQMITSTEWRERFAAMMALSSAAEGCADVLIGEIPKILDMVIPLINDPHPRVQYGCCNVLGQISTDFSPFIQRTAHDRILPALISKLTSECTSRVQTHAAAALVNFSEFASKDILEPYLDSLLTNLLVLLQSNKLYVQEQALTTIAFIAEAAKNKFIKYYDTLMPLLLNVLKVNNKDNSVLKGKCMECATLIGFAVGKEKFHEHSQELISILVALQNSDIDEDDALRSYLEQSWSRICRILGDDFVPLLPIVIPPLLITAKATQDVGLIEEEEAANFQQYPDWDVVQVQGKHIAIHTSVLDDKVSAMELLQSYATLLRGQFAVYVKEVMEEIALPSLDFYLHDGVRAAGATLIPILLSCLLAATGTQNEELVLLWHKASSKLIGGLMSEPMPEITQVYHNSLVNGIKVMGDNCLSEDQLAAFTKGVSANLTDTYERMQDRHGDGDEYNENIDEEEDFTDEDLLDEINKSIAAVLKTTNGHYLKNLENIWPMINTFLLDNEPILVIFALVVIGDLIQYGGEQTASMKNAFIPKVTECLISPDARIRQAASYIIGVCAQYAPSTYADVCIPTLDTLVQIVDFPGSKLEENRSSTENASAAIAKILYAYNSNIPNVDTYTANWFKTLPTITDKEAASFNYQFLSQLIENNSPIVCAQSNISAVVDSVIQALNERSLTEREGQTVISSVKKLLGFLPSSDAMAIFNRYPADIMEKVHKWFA
Put plainly: ITC.

This is an account of results in publication doi:10.1101/411223 (bioRxiv, 2018).

B1: yTBP (61-240) (domain or fragment, S. cerevisiae, UniProt P13393 61-240, looked up)
chain: SGIVPTLQNIVATVTLGCRLDLKTVALHARNAEYNPKRFAAVIMRIREPKTTALIFASGKMVVTGAKSEDDSKLASRKYARIIQKIGFAAKFTDFKIQNIVGSCDVKFPIRLEGLAFSHGTFSSYEPELFPGLIYRMVKPKIVLLIFVSGKIVLTGAKQREEIYQAFEAIYPVLSEFRKM
As to B1, the dissociation constant (Kd) was around 10 µM in the test with Kap95p and around 15 µM in the test with Kap121p.

In general, Kd refers to a measure of binding affinity in units of concentration.
